The assay concerns the target T1, human TIGIT expressed on the cell surface of Jurkat cells (human, UniProt Q495A1 22-244).
T1 construct: also called Jurkat-hTIGIT; cell surface TIGIT
T1 sequence: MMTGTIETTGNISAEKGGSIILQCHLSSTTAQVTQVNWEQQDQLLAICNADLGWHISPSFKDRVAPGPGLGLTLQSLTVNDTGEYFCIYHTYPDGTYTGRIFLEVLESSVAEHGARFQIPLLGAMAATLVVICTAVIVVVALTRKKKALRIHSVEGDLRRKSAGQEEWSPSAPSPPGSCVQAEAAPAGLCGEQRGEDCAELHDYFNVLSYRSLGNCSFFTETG
Nature of the assay: flow cytometry on Jurkat-hTIGIT cells. Here is the method:
Supernatants from ELISA-positive clones or purified antibodies were further tested for their ability to bind to human TIGIT or rhesus TIGIT expressed on the cell surface of Jurkat cells (Jurkat-hTIGIT or Jurkat-rhesTIGIT) by flow cytometry. Jurkat-hTIGIT or Jurkat-rhesTIGIT cells were harvested and 1×10⁵ cells per well plated in 96-well U-bottom plates and the supernatant removed. 50 μl of hybridoma supernatant or purified antibody at the specified dilution or concentration was added to each well and incubated at 4° C. for 30 minutes. Assay plates were washed 2 times with PBS and antibody binding detected using a PE-labeled goat anti-mouse antibody (Biolegend) at 1:400 dilution in PBS for 30 minutes at 4° C. Plates were washed 2 times and analyzed on a BD LSRFortessa X-20 flow cytometer (Becton Dickinson).

Residue numbers refer to the chain shown, from its start.

B1: 45.32B10.A4 (antibody, V domains shown)
VH: EVQLVESGGVLVKPGGSLKLSCAASGFTFSNYVMSWVRQTPEKRLEWVATITSGGTYTYYPDSVKGRFTISRDNAKNILYLQMSSLRSEDTALYYCTRWLLSLYAMDYWGQGTSVTVSS
VL: DIQMTQTTSSLSASLGDRVTITCRASQDISNFLNWYQQKPDGTVKLLIYYTSRLHSGVPSRFSGSGSGTDYSLTISNLEQEDIATYFCQQGKTYPYTFGGGTKVEIK
notes: Mouse hybridoma antibody, tested as supernatant or protein G purified
On to B1, for which the binding result is “binds”.

B2: 45.56F7.A1 (antibody, V domains shown)
VH: B1 VH with V10A, V33A, T52S, T56S, I78T, T97A
VL: B1 VL with I2F, T22S, A25S, F32Y, Y50R, Q80R, Y94P, V104L
notes: as for B1
On to B2, for which the binding result was “binds”.

B3: hu32B10 (45.32B10.A4) (antibody, V domains shown)
VH: EVQLLESGGGLVQPGGSLRLSCAASGFTFSNYVMSWVRQAPGKGLEWVSTITSGGTYTYYPDSVKGRFTISRDNSKNTLYLQMNSLRAEDTAVYYCTRWLLSLYAMDYWGQGTTVTVSS
VL: DIQMTQSPSSLSASVGDRVTITCRASQDISNFLNWYQQKPGKAVKLLLYYTSRLHSGVPSRFSGSGSGTDYTLTISSLQPEDFATYFCQQGKTYPYTFGGGTKVEIK
notes: Humanized antibody; also called humanized 45.32B10.A4
Take B3: the binding result is given as “binds”.

B4: 45.32A8.G6 (antibody, V domains shown)
VH: QVQLKESGPGLVAPSHSLSITCTVSGFSLTNYNINWIRQPPGKGLEWLGIIWTGGGTNYNSAFMSTLSINKDNSKSQVFLKMNRMQTDDTTIYYCVRETYFNNYGFYFDYWGQSTTLTVSS
VL: EIVLTQSPTTMAASPGEKITITCSASSSISSNYLHWYQQKPGFSPKLLIYRTSNLASGVPARFSGSGSGTSYSLTIGTMEAEDVATYYCQQGSSIPRTFGGGTKLEIK
notes: as for B1
B4: the binding result was “binds”.

B5: 45.50C2.A6 (antibody, V domains shown)
VH: B4 VH with H16Q, I50V, T66R, N70S, M85L, T91A, T99A, N102S, S114G
VL: B4 VL
notes: as for B1
As for B5, the binding result is given as “binds”.

B6: 45.75D4.D3.D9 (antibody, V domains shown)
VH: EVQLQQSGPELVKPGASMKMSCKASGYKFTSYVMHWVKQKPGQGLEWIGYIDPYNDGSKYNEKFKGKATLTSDKSSSIAYMELSSLTSEDSAVFYCARGGSRGWYFDVWGAGTTVTVSS
VL: DIQMTQSPASLSASVGETVTFTCRTNENIYSYLTWYQQKQGKSPQVLVYNAKTLAEGVPSRFSGSGSGTQFSLKINSLQPEDFGSYFCQHHFGNPLTFGAGTKLELK
notes: as for B1
In the case of B6, the binding result is on record as “binds”.

B7: 45.62B12.G5 (antibody, V domains shown)
VH: DVQLQESGPGLVKPSQSLSLTCTVTGYSITSAYDWHWIRHFPGNILEWMGYIRNSGSTNYNPLLKSRISITHDTSQNHFSLKLNSVTTEDTATYYCARGLFWYFDVWGAGTTVTVSS
VL: B6 VL with F21I, T25A, N26S, S31N, V46L, F87Y, F92Y
notes: as for B1
With B7, the binding result is reported as “binds”.

B8: 45.86C5.C3 (antibody, V domains shown)
VH: DVQLQESGPGLVKPSQSLSLTCTVTGYSITSGYDWHWIRHFPGNILEWMGYISDSGNTIYSPSLKSRISITHDTSKNHFFLKLNSVTSEDTATYYCARGSFWYFDVWGAGTTVTVSS
VL: B6 VL with F21I, T25V, N26S, T34A, V46L, A51T, F87Y, F92Y
notes: as for B1
As for B8, the binding result was “binds”.

B9: 45.87B8.H2.H5 (antibody, V domains shown)
VH: B8 VH with G32A, H40L, N44H, D54Y, S61N, S88T
VL: DIQMTQSPASLSASVGETVTITCRVSEHIYNYLAWYQQKQGKSPQLLVYNAKTLAEGVPSRFSGSGSGTQFSLKINSLQPEDFGTYYCQHNYGNPLTFGAGTKVELK
notes: as for B1
Turning to B9, the binding result is given as “binds”.

B10: 45.3D7.F7 (antibody, V domains shown)
VH: QVQLQQSGPELVKPGASVKISCKASGYGFSGYWMNWVKQGPGKGLEWIGRIFPGDGDTDYNGKLKDKATLTAYKSSSTAYLQLSSLTSEDSAVYFCARWLGGFTSWGQGTLVTVSA
VL: QIVLSQSPAILSASPGEKVTMTCRASASVSYMHWYQQKPGSSPKPWIYATSNLASGVPARFSGSGSGTSYSLTISRVEAEDAATYYCQQWSSDPPTFGAGTKLELK
notes: as for B1
On to B10, for which the binding result is reported as “binds”.

(Values after patent US20240425588A1 (APEXIMMUNE THERAPEUTICS, published 2024).)
